Assay results taken from patent publication EP1105154B1 (Walter Reed Army Institute of Research, dated 2016).

Biological target: T1, HLA-DR1 (DR1αβ; DRA and DRB1*0101) on cells (human)
T1 construct: whole, on cells
Assay: flow cytometry on human MHC class II expressing cells

B1: Staphylococcal enterotoxin A (SEA), wild type (ligand)
chain: SEKSEEINEKDLRKKSELQGTALGNLKQIYYYNEKAKTENKESHDQFLQHTILFKGFFTDHSWYNDLLVDFDSKDIVDKYKGKKVDLYGAYYGYQCAGGTPNKTACMYGGVTLHDNNRLTEEKKVPINLWLDGKQNTVPLETVKTNKKNVTVQELDLQARRYLQEKYNLYNSDVFDGKVQRGLIVFHTSTEPSVNYDLFGAQGQYSNTLLRIYRDNKTINSENMHIDIYLYTS
binding result: binds
